Among the data in article PMC3214066 are Kd values, retold here.

The target in the assay is Collagen S (soluble, type I, from calf skin) (calf) (UniProt P02453). Nature of the assay: radioligand binding; collagen I monomers (5 µg/mL in 1% acetic acid + 1% NaCl) coated on 96-well plates, blocked with 1% BSA; 125I-labelled A1M (50×10^3 cpm) with increasing unlabelled A1M in PBS + 0.05% Tween, overnight at 4°C; Scatchard analysis.

For orientation: Kd means the free concentration of one partner at which half of the binding sites on the other are occupied at equilibrium, for simple one-to-one binding.

UniProt P02453, sequence (P02453 162-1217, chain 1 of 2): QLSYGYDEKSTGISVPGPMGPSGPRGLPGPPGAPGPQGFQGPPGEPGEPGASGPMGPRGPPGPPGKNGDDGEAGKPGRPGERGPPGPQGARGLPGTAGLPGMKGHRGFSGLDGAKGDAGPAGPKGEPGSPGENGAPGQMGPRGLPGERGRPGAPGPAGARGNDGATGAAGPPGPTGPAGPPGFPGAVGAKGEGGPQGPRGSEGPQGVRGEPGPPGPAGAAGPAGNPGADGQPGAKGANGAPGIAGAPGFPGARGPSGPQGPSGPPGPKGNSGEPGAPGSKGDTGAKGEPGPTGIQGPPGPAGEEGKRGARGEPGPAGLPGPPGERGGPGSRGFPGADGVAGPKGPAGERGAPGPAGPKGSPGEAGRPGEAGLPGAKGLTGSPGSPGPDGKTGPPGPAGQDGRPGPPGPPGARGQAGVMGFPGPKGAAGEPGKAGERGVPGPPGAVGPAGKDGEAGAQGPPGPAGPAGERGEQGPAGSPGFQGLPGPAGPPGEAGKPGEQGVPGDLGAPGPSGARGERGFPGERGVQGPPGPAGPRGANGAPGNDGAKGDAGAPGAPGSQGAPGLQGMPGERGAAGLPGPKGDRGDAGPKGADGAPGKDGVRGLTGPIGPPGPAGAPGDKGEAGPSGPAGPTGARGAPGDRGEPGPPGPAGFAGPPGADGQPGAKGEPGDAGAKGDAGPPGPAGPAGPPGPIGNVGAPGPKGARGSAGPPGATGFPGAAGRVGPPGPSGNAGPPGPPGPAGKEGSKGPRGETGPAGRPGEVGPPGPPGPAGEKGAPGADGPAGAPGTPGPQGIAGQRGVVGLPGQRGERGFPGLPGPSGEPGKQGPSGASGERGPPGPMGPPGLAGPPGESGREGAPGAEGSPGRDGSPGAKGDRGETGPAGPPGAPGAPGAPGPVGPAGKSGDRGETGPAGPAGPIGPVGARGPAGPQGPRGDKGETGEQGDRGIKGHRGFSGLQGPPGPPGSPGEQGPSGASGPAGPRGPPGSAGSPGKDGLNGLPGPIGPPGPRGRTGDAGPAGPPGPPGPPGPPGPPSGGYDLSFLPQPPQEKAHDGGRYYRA
UniProt P02453, sequence (P02465 80-1117, chain 2 of 2, further chain): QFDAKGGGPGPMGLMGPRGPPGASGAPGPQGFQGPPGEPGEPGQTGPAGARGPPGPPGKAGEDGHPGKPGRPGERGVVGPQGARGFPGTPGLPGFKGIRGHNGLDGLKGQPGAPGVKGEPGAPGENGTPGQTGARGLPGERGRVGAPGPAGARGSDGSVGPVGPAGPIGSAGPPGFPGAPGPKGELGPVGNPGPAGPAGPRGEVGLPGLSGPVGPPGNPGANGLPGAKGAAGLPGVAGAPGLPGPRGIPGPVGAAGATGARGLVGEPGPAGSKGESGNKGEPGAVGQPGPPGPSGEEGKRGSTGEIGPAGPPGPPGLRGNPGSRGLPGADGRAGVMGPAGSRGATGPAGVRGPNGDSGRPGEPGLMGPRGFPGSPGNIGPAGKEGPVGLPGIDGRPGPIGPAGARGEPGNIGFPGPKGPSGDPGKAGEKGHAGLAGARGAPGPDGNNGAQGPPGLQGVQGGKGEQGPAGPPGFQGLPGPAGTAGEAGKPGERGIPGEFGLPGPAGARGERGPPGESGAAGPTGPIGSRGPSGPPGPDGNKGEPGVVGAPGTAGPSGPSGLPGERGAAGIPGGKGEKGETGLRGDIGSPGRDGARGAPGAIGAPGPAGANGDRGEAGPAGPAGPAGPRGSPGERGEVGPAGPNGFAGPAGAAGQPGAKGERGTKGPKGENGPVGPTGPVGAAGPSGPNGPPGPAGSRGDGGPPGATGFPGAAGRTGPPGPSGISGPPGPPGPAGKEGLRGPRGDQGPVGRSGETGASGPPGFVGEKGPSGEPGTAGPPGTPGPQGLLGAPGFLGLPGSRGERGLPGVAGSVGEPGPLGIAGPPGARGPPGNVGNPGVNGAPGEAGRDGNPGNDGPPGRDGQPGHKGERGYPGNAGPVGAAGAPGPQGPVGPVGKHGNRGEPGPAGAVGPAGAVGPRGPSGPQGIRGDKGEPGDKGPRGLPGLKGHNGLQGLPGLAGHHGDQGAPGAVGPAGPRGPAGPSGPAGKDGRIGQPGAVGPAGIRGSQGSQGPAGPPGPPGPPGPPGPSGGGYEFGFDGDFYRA

B1: Recombinant human α1-microglobulin (A1M) (natural protein)
chain: GPVPTPPDNIQVQENFNISRIYGKWYNLAIGSTCPWLKKIMDRMTVSTLVLGEGATEAEISMTSTRWRKGVCEETSGAYEKTDTDGKFLYHKSKWNITMESYVVHTNYDEYAIFLTKKFSRHHGPTITAKLYGRAPQLRETLLQDFRVVAQGVGIPEDSIFTMADRGECVPGEQEPEPILIPRV
modifications: 125I label (chloramine T method) on the tracer in the solid phase binding assay; colloidal gold label (4-5 nm) in the electron microscopy binding experiment
As for B1, the dissociation constant Kd stood at 960 nM.
